According to PMC7819943, “Rice protein-binding microarrays: a tool to detect cis-acting elements near promoter regions in rice”:

T1: OsSMF1 (Oryza sativa, UniProt Q6ZLB0 1-436)
T1 sequence: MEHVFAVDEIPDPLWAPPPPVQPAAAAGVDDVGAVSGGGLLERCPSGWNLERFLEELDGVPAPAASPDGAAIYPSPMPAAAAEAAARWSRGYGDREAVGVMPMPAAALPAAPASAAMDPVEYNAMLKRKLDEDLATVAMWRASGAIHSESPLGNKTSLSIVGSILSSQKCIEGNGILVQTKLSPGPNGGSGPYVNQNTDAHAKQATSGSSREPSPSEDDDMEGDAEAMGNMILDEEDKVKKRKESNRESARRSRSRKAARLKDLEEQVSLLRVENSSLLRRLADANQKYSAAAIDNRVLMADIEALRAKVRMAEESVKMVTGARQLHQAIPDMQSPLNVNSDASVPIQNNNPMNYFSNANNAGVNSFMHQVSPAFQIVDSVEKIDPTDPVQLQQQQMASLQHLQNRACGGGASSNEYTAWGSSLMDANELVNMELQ

B1: Os05g0415400_39 (ONAC024 promoter probe) (dsDNA)
DNA 1: GATAATGAGTCAGTCCTCTTGTCGATACTCCGCCGGTATG
DNA 2: CATACCGGCGGAGTATCGACAAGAGGACTGACTCATTATC
B2: Os01g0393100_8 (ONAC026 promoter probe) (dsDNA)
DNA 1: CTGGAATCTGAGGGGAACCACGTCACGTACACAAGTATAT
DNA 2: ATATACTTGTGTACGTGACGTGGTTCCCCTCAGATTCCAG
B3: Os01g0311500_18 (dsDNA)
DNA 1: TTGACGCCGTTGACTTTTTAGTACATGTTTGACCATTCGT
DNA 2: ACGAATGGTCAAACATGTACTAAAAAGTCAACGGCGTCAA

Columns and labels:
OsSMF1 = molecular target: T1, OsSMF1; assay: EMSA; EMSA: 5 ug protein, 40 fmol FAM-dsDNA, 1 ug poly(dI-dC), 1X binding buffer (Pierce), 2.5% glycerol, 0.05% NP-40, 20 ul, 1 h room temperature; 6% acrylamide gel; conditions: protein: recombinant; tags: N-terminal polyhistidine and DsRed monomer fusion (pET32a); chain copies: 2; label: 5' FAM; blunt
OsWRKY34 = OsWRKY34 (Oryza sativa, UniProt Q0JBA9 1-250); assay: as above; conditions: protein: recombinant; tags: N-terminal polyhistidine and DsRed monomer fusion (pET32a); label: 5' FAM; blunt
Chain of OsWRKY34 (Q0JBA9 entry or part of it): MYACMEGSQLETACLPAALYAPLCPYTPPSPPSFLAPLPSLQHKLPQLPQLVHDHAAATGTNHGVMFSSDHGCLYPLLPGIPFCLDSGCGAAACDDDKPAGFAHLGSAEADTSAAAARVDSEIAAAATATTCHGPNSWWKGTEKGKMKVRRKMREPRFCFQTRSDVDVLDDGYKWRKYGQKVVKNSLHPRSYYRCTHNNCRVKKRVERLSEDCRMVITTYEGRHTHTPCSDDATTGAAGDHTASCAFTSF

Binder | binding result (OsSMF1) | binding result (OsWRKY34)
B1 | binds | –
B2 | binds | –
B3 | – | binds
